Our source for the EC50 values is patent publication US20220363769A1 (SORRISO PHARMACEUTICALS, published 2022).

The term EC50 denotes the midpoint of the concentration-response curve.

The labels stand for the following.
T1: recombinant human IL-7Rα-His6-Fc (human, UniProt P16871 21-239)
T1 construct: also called hIL-7R; not shown: His6 tag; Fc (captured by anti-human IgG Fc)
T1 chain: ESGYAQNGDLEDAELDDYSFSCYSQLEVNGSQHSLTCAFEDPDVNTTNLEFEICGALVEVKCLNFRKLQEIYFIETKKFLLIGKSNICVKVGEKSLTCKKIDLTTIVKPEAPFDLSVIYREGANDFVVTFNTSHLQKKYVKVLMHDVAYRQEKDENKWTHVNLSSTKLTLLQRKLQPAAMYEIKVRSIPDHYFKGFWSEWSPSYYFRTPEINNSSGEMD

B1: ID-A39U (VHH)
VHH: EVQLVESGGGLVQAGGSLRLSCESSISTFSSDAMGWFRQAPGKGREFLAAIGWSGAVTHYSDSVQGRFTISRDNAKNTVYLQMNSLRAEDTGRYYCAEDYDTDVWQYWGQGTQVTVSS
notes: V7R-2E9 with E44G, K87R, S88A
B2: ID-A32U (VHH)
VHH: B1 VHH with A88S
notes: V7R-2E9 with E44G, K87R
B3: ID-A31U (VHH)
VHH: B1 VHH with Q65K, R87K, A88S
notes: V7R-2E9 with E44G, Q65K
B4: ID-A30U (VHH)
VHH: B1 VHH with Q65K
notes: V7R-2E9 with E44G, Q65K, K87R, S88A
B5: ID-A25U (VHH)
VHH: B1 VHH with F47W, Q65K
notes: V7R-2E9 with E44G, F47W, Q65K, K87R, S88A
B6: ID-A37U (VHH)
VHH: B1 VHH with Q65K, A88S
notes: V7R-2E9 with E44G, Q65K, K87R
B7: ID-A23U (VHH)
VHH: B1 VHH with R45L, F47W, Q65K
notes: V7R-2E9 with E44G, R45L, F47W, Q65K, K87R, S88A
B8: ID-A33U (VHH)
VHH: B1 VHH with R87K
notes: V7R-2E9 with E44G, S88A
B9: ID-A28U (VHH)
VHH: B1 VHH with R45L, F47W, Q65K, R87K
notes: V7R-2E9 with E44G, R45L, F47W, Q65K, S88A
B10: ID-A26U (VHH)
VHH: B1 VHH with R45L, Q65K
notes: V7R-2E9 with E44G, R45L, Q65K, K87R, S88A
B11: ID-A24U (VHH)
VHH: B1 VHH with G44E, R45L, F47W, Q65K
notes: V7R-2E9 with R45L, F47W, Q65K, K87R, S88A
B12: ID-A29U (VHH)
VHH: B1 VHH with R45L, F47W, Q65K, A88S
notes: V7R-2E9 with E44G, R45L, F47W, Q65K, K87R
B13: ID-A27U (VHH)
VHH: B1 VHH with R45L, F47W
notes: V7R-2E9 with E44G, R45L, F47W, K87R, S88A
B14: ID-A38U (VHH)
VHH: B1 VHH with Q65K, R87K
notes: V7R-2E9 with E44G, Q65K, S88A
B15: ID-A34U (VHH)
VHH: B1 VHH with G44E, Q65K, A88S
notes: V7R-2E9 with Q65K, K87R
B16: ID-A36U (VHH)
VHH: B1 VHH with G44E
notes: V7R-2E9 with K87R, S88A
B17: ID-A35U (VHH)
VHH: B1 VHH with G44E, Q65K, R87K
notes: V7R-2E9 with Q65K, S88A
B18: V7R-2B6 (VHH)
VHH: EVQLVESGGGLVQAGGSLRLSCESSARTFSDDAMGWFRQAAGKEREFLAAINWSGAVTHYGDSVKGRFTISRDNAKNTVYLQMDSLKPEDTAVYYCAEDYDTDVWQHWGQGTQVTVSS
notes: llama ICVD, primary clone, expressed in E. coli TG1; not shown: C-terminal FLAG and 6xHis tags from vector pMEK222
B19: V7R-3B5 (VHH)
VHH: B1 VHH with A14V, G44E, R87K, A88S
notes: as for B18
B20: V7R-2F6 (VHH)
VHH: B1 VHH with S27G, G44E, A56T, R87K, A88S
notes: as for B18
B21: V7R-4F6 (VHH)
VHH: B1 VHH with S30G, G44E, L48V, I51T, Q65K, R87K, A88S, R93T
notes: as for B18
B22: V7R-6C12 (VHH)
VHH: B1 VHH with G44E, Q65K, R87K, A88S, D101V
notes: llama ICVD, primary clone, expressed in E. coli TG1; also called IL-7R-6C12; not shown: C-terminal FLAG and 6xHis tags from vector pMEK222
B23: V7R-2E5 (VHH)
VHH: B1 VHH with A14P, G44E, R87K, A88S
notes: as for B18
B24: ID-A2U (VHH)
VHH: B1 VHH with E23A, G44E, R87K, A88S
notes: V7R-2E9 with E23A; produced from E. coli
B25: ID-A21U (VHH)
VHH: B1 VHH with G44E, R87K, A88S, Q113L
notes: V7R-2E9 with Q113L; produced from E. coli
B26: ID-A20U (VHH)
VHH: B1 VHH with G44E, R87K, A88S, R93V
notes: V7R-2E9 with R93V; produced from E. coli
B27: ID-A8U (VHH)
VHH: B1 VHH with R45L, F47W, R87K, A88S
notes: V7R-2E9 with 44 to 47 EREF to GLEW; produced from E. coli
B28: ID-A18U (VHH)
VHH: B1 VHH with G44E, R87K, A88T
notes: V7R-2E9 with S88T; produced from E. coli
B29: ID-A9U (VHH)
VHH: B1 VHH with R87K, A88S
notes: V7R-2E9 with E44G; produced from E. coli
B30: ID-A12U (VHH)
VHH: B1 VHH with G44E, L48V, R87K, A88S
notes: V7R-2E9 with L48V; produced from E. coli
B31: ID-A7U (VHH)
VHH: B1 VHH with R45L, F47W, L48V, A49S, R87K, A88S
notes: V7R-2E9 with 44 to 49 EREFLA to GLEWS (so in the source); produced from E. coli
B32: ID-A16U (VHH)
VHH: B1 VHH with G44E, A88S
notes: V7R-2E9 with K87R; produced from E. coli
B33: ID-A10U (VHH)
VHH: B1 VHH with G44E, R45L, R87K, A88S
notes: V7R-2E9 with R45L; produced from E. coli
B34: ID-A11U (VHH)
VHH: B1 VHH with G44E, F47W, R87K, A88S
notes: V7R-2E9 with F47W; produced from E. coli
B35: ID-A17U (VHH)
VHH: B1 VHH with G44E, R87K
notes: V7R-2E9 with S88A; produced from E. coli
B36: ID-A19U (VHH)
VHH: B1 VHH with G44E, R87K, A88S, G92A
notes: V7R-2E9 with G92A; produced from E. coli
B37: ID-A6U (VHH)
VHH: B1 VHH with F37V, G44E, R87K, A88S
notes: V7R-2E9 with F37V; produced from E. coli
B38: ID-A13U (VHH)
VHH: B1 VHH with G44E, A49S, R87K, A88S
notes: V7R-2E9 with A49S; produced from E. coli
B39: ID-A5U (VHH)
VHH: B1 VHH with I26G, G44E, R87K, A88S
notes: V7R-2E9 with I26G; produced from E. coli
B40: ID-A15U (VHH)
VHH: B1 VHH with G44E, V79L, R87K, A88S
notes: V7R-2E9 with V79L; produced from E. coli
B41: ID-A4U (VHH)
VHH: B1 VHH with S24A, G44E, R87K, A88S
notes: V7R-2E9 with S24A; produced from E. coli
B42: ID-A14U (VHH)
VHH: B1 VHH with G44E, Q65K, R87K, A88S
notes: V7R-2E9 with Q65K; produced from E. coli

Residue numbers refer to the chain shown, from its start. Names may count otherwise.

In the first assay the target is T1, recombinant human IL-7Rα-His6-Fc. The assay is described as follows: IL-7/IL-7Rα-His6-Fc ELISA; inhibition of IL-7 binding to IL-7R.
In the case of B1, the EC50 is 0.411 nM.

On to B2, for which the EC50 worked out at 0.367 nM.

With B3, the EC50 came to 0.336 nM.

B4: the EC50 amounted to 0.362 nM.

In the case of B5, the EC50 came to 0.835 nM.

Turning to B6, the EC50 is 0.845 nM.

Consider B7, for which the EC50 came to 0.854 nM.

For the molecule B8, the EC50 came to 0.429 nM.

As to B9, the EC50 turned out to be 0.46 nM.

Consider B10, for which the EC50 came out at 0.841 nM.

For B11, the EC50 stood at 0.819 nM.

With B12, the EC50 is 0.476 nM.

As for B13, the concentration giving a half-maximal response (EC50) is 0.395 nM.

Regarding B14, the EC50 was 0.789 nM.

Take B15: the EC50 is 0.376 nM.

For B16, the EC50 was found to be 0.797 nM.

With B17, the EC50 was found to be 0.849 nM.

The target is the same in another assay. The assay is described as follows: IL-7/IL-7R neutralising ELISA; inhibition of IL-7 binding to IL-7R. The method, then: A 7-point dilution series of the clones was prepared in 1% BSA (at 2× the assay concentration) starting at 300 nM and using a 3.2 dilution factor. […] Block buffer alone was also added to each plate as blank. […] TMB reaction was stopped after 30 minutes.
EC₅₀ values were generated in Graphpad prism using the ELISA signal blank corrected A450 data and ‘log(inhibitor) vs. response—Variable slope (four parameters)’ to fit curves and generate EC₅₀.
(ELISA stands for enzyme-linked immunosorbent assay.)
Regarding B18, the EC50 was determined as 0.264 nM.

In the case of B19, the EC50 came to 0.222 nM.

As to B20, the EC50 was found to be 0.361 nM.

For B21, the EC50 was 0.259 nM.

Turning to B22, the EC50 is 0.416 nM.

As to B23, the EC50 came to 0.64 nM.

For a further assay the target is unchanged. The assay is described as follows: IL-7/IL-7R neutralisation ELISA; inhibition of IL-7 binding to IL-7R. The method, then:
A 7-point dilution series of the clones was prepared in 1% BSA (at 2× the assay concentration) starting at 300 nM and using a 3.2 dilution factor. […] Block buffer alone was also added to each plate as blank. […] TMB reaction was stopped after 30 minutes. […]
As to B24, the EC50 was 0.475 nM.

B25: the EC50 was 0.436 nM.

With B26, the concentration for a half-maximal effect (EC50) stood at 0.139 nM.

Turning to B27, the EC50 worked out at 0.604 nM.

Turning to B28, the EC50 worked out at 0.214 nM.

On to B29, for which the EC50 was found to be 0.168 nM.

Consider B30, for which the EC50 worked out at 0.179 nM.

With B31, the EC50 stood at 0.513 nM.

Take B32: the EC50 came to 0.446 nM.

As to B33, the EC50 was found to be 0.529 nM.

On to B34, for which the half-maximal effective concentration (EC50) was determined as 0.175 nM.

As for B35, the concentration giving a half-maximal response (EC50) is 0.493 nM.

With B36, the EC50 worked out at 0.188 nM.

Take B37: the EC50 came out at 0.194 nM.

On to B38, for which the EC50 is 0.615 nM.

As to B39, the concentration for a half-maximal effect (EC50) stood at 0.49 nM.

With B40, the EC50 was found to be 0.146 nM.

As to B41, the EC50 was found to be 0.489 nM.

Regarding B42, the EC50 is 0.15 nM.
